The results in this text go back to paper PMC12090352, “Strigolactones enhance apple drought resistance via the MsABI5-MsSMXL1-MsNAC022 cascade”.

The series deals with T1, MsABI5 (Malus sieversii, UniProt A0A498IDK6 1-328+A0A540LD52:305-441, internal_change).
T1 sequence: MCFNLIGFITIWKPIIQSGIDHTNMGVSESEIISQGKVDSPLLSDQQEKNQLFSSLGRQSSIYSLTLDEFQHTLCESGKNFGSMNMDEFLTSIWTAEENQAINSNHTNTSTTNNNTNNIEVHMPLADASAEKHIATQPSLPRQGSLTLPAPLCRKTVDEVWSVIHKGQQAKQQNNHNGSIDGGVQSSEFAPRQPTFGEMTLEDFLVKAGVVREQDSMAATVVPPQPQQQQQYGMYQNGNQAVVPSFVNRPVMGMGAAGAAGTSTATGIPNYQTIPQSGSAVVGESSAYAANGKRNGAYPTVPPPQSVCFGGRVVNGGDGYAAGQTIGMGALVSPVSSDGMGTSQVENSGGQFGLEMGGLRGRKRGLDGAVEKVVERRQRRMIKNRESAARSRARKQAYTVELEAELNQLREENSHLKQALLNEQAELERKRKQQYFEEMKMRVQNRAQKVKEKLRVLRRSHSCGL
Put plainly: EMSA; EMSA per manufacturer's instructions (Beyotime); buffer, salt, pH and temperature not stated. Conditions: protein: recombinant; tags: MBP (pMAL-C2X); chain copies: 2; blunt.

B1: MsP5CS2.2 promoter ABRE probe (dsDNA)
DNA 1: AGAAACCGACACGTCTCTCTTTTCTA
DNA 2: TAGAAAAGAGAGACGTGTCGGTTTCT
With B1, the binding result is “binds”.

B2: MsSMXL1 promoter P3 ACE probe (dsDNA)
DNA 1: ATGTTGATTAACGTACCACTTAGTAC
DNA 2: GTACTAAGTGGTACGTTAATCAACAT
For the molecule B2, the binding result is “binds”.
